Measurements reported in US20180306789A1 (IMMATICS BIOTECHNOLOGIES, published 2018).

The binders below were run against HLA-A*02-presented DCAF4L2-001 on target cells (human) (assay: cell-based or functional assay).

Binder	EC50 of target peptide titration (IFNγ release)
TCR R53P2A9 (TCR, V domains shown) V domain 1: QTVTQSQPEMSVQEAETVTLSCTYDTSESDYYLFWYKQPPSRQMILVIRQEAYKQQNATENRFSVNFQKAAKSFSLKISDSQLGDAAMYFCAYNSYAGGTSYGKLTFGQGTILTVHP V domain 2: DAGVTQSPTHLIKTRGQQVTLRCSPISGHKSVSWYQQVLGQGPQFIFQYYEKEERGRGNFPDRFSARQFPNYSSELNVNALLLGDSALYLCASSLDGTSEQYFGPGTRLTVTE	~11.8 nM
TCR R52P2G11 (TCR, V domains shown) V domain 1: RGNGKNQVEQSPQSLIILEGKNCTLQCNYTVSPFSNLRWYKQDTGRGPVSLTIMTFSENTKSNGRYTATLDADTKQSSLHITASQLSDSASYICVVSAYGKLQFGAGTQVVVTP V domain 2: DAGVIQSPRHEVTEMGQEVTLRCKPISGHNSLFWYRQTMMRGLELLIYFNNNVPIDDSGMPEDRFSAKMPNASFSTLKIQPSEPRDSAVYFCASSLGSPDGNQPQHFGDGTRLSILE	~8.5 nM
TCR R36P3F9 (TCR, V domains shown) V domain 1: SQQGEEDPQALSIQEGENATMNCSYKTSINNLQWYRQNSGRGLVHLILIRSNEREKHSGRLRVTLDTSKKSSSLLITASRAADTASYFCATVSNYQLIWGAGTKLIIKP V domain 2: EAQVTQNPRYLITVTGKKLTVTCSQNMNHEYMSWYRQDPGLGLRQIYYSMNVEVTDKGDVPEGYKVSRKEKRNFPLILESPSPNQTSLYFCASSSTSGGLSGETQYFGPGTRLLVLE	~3.6 nM
